Results from publication PMC3334467 (Immunity, 2012).

Target: T1, MBP-AIM2 HIN domain (human, UniProt O14862 144-343)
T1 sequence (looked up): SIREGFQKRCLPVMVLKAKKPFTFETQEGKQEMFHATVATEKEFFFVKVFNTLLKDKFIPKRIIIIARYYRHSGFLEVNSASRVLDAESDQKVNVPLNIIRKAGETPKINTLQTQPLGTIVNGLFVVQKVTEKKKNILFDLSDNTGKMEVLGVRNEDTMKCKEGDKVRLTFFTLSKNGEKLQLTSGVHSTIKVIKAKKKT
Experiment: fluorescence polarisation

IC50: 11 µM
B1: AIM2 PYD domain, wild type (residues 1–107), as used in the FP inhibition assay (domain or fragment, human, UniProt O14862 1-107, looked up)
chain: MESKYKEILLLTGLDNITDEELDRFKFFLSDEFNIATGKLHTANRIQVATLMIQNAGAVSAVMKTIRIFQKLNYMLLAKRLQEEKEKVDKQYKSVTKPKPLSQAEMS
